In article PMC10526274, “Epithelial-Immune Cell Crosstalk Determines the Activation of Immune Cells In Vitro by the Human Cathelicidin LL-37 at Low Physiological Concentrations” (Biomolecules, 2023):

Test system: Caco-2 polarized monolayer
Test: Bidirectional transport of FITC-LL-37 through the Caco-2 epithelial monolayer
Format: in vitro ADME, human
Description: Caco-2 cell line (ATCC HTB-37) was cultured in a humidified CO2-incubator (5% CO2, 37 °C) in the complete DMEM/F12 (1:1) medium (Gibco, Waltham, MA, USA) containing 10% fetal bovine serum (FBS, Gibco) and 1X antibiotic–antimycotic solution (Gibco). To stabilize the cell phenotype, Caco-2 cells have been subcultivated three times before seeding on the filter supports. Then, Caco-2 cells were seeded at a density of 2 × 10^5 cells/cm^2 onto 24-well Millicell cell culture inserts (PC, 0.4-μm pore size, 0.6 cm^2 surface area, cat. #PIHP01250) (Millipore, Burlington, MA, USA), precoated with 0.2% bovine gelatin (Sigma-Aldrich, Saint Louis, MO, USA). After seeding, Caco-2 cells were grown in the same complete medium with re-feeding every 2–3 days until polarization of the monolayer occurred. The functional polarity of the monolayers was developed when transepithelial electrical resistance (TEER) between the apical and basolateral surfaces of the monolayers reached […] as measured by the electrical resistance system Millicell-ERS Voltohmmeter (Millipore, Burlington, MA, USA). Grown cell monolayers were used in transport and cytokine production experiments between the 21st and 29th days.
LL-37 was labeled with fluorescein isothiocyanate isomer I (FITC) (Sigma-Aldrich). For coupling with FITC, 0.5 mg of LL-37 in 50 µL of DMSO was first mixed with 200 µL of the carbonate–bicarbonate coupling buffer (0.1 M sodium carbonate, 0.1 M sodium bicarbonate, pH 10.4). Then, 4 mg of FITC in 200 µL of DMSO was added to the solution, and the resultant mixture was incubated in the dark at room temperature (20–22 °C) for 2 h. FITC-LL-37 was purified by using a PD10 gel-filtration column (GE Healthcare, Chicago, IL, USA) pre-equilibrated with PBS.
The penetration capability of FITC-LL-37 was investigated using Caco-2 cells as an in vitro model of the intestinal epithelial barrier, grown on permeable Millicell cell culture inserts. Transport of the compound from both sides of the monolayer was determined in the transport buffer (Hank’s balanced salt solution, containing 25 mM HEPES, 1 mM MgCl2, 1 mM CaCl2, and 10 mM D(+)glucose, pH 7.4). […]
Transfer of LL-37 through Caco-2 monolayers under steady-state conditions was evaluated mathematically for each direction and each insert by the apparent permeability coefficient (Papp), calculated according to the following Equation (1): Papp = ΔC/Δt × (V/(A × Ci))(1) where ΔC/Δt is the solute flux (nM/s) across the barrier, V is the volume of the acceptor chamber, A is the effective filter area of the well (cm^2), and Ci is the initial concentration of the donor solution (nM). […]

## LL-37: the only human cathelicidin, host defense antimicrobial peptide of 37 a.a. residues, produced by solid-phase peptide synthesis
Caco-2 (ATCC HTB-37) on Millicell PC inserts, day 21-29, TEER 400, basolateral-to-apical, FITC-labeled LL-37, 5 µM donor, HBSS, 25 mM HEPES, pH 7.4 both sides, 37 °C, 90 min, range over 4 independent inserts
  Apparent permeability (Papp) B → A (secretory): 1.7–2.1 × 10^−6 cm/s
Caco-2, FITC-labeled LL-37 5 µM, pH 7.4, 90 min
  Uptake ratio (UR) = Papp(A → B)/Papp(B → A): 0.51
Caco-2, FITC-labeled LL-37 5 µM, pH 7.4, 90 min, no inhibitor
  Efflux ratio (ER) = Papp(B → A)/Papp(A → B): 1.95
Predicted from Caco-2 Papp A → B by the classification of ref 20
  Predicted absorption in the human gut: 0–20%
